In patent US20160090402A1 one finds NF/NT, Mean (fluorescent cells of 77 cells) and NF/NT, Mean (fluorescent cells of 57 cells) data, which are given here for one substance.

The target of assay [1] is hASCT1 receptor (human) (UniProt P43007). Description: soluble Env injected into SCID mice grafted with XChASCT1 cells; cells recovered, anti-RGS-His immunofluorescence.
For assay [2], the target named is hASCT2 receptor (human type 2 sodium-dependent neutral amino acid transporter) (human) (UniProt Q15758). Description: soluble Env injected into SCID mice grafted with XChASCT2 cells; cells recovered, anti-RGS-His immunofluorescence.
hASCT2 receptor (human type 2 sodium-dependent neutral amino acid transporter) (human), sequence (Q15758 whole entry): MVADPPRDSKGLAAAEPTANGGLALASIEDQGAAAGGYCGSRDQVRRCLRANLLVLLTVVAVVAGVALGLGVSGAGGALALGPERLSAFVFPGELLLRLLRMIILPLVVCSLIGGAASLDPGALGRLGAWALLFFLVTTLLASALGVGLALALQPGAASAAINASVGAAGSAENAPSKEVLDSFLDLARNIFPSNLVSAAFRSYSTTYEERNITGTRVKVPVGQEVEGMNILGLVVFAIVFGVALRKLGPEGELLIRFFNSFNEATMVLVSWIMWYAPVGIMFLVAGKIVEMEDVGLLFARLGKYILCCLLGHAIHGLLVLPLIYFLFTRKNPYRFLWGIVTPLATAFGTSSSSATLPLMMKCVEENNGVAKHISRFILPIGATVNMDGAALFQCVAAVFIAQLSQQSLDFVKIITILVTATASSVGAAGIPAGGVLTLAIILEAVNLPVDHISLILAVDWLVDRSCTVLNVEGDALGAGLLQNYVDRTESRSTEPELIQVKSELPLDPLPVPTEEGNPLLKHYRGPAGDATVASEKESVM

hASCT1 receptor (human), sequence (P43007 whole entry): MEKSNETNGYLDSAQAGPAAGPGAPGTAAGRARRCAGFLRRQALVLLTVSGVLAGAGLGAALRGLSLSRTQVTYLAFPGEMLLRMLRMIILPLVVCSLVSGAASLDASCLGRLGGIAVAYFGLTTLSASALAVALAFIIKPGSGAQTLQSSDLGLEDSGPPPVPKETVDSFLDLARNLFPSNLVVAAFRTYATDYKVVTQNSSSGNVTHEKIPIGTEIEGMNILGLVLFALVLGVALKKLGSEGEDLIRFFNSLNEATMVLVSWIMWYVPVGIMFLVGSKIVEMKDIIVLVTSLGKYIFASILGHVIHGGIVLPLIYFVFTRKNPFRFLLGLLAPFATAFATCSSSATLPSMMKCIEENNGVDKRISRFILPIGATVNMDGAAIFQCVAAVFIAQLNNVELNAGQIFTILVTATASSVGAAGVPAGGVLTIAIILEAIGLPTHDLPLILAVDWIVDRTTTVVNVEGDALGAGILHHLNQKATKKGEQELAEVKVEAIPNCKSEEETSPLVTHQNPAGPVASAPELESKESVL

Regarding “soluble protein of plasmid 460 (envelope-spacer-His6) (from UniProt Q9UQF0 21-435) (ligand)”, the NF/NT, Mean (fluorescent cells of 77 cells) in assay [1] is 24. Moreover, the NF/NT, Mean (fluorescent cells of 57 cells) in assay [2] came out at 23.
